In paper PMC9482650, “Quantitative fragmentomics allow affinity mapping of interactomes” (Nature Communications, 2022):

T1: DFNB31_2, Q9P202
T1 sequence (Q9P202 274-371, limits assumed, looked up): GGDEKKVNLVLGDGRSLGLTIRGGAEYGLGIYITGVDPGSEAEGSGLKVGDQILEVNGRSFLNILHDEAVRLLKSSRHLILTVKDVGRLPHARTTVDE

T2: LIN7B, Q9HAP6
T2 sequence (Q9HAP6 88-185, limits assumed, looked up): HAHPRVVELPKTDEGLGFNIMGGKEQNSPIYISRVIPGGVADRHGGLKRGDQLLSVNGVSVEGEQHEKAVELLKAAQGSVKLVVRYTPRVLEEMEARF

T3: PTPN13_1, Q12923
T3 sequence (Q12923 1088-1188, limits assumed, looked up): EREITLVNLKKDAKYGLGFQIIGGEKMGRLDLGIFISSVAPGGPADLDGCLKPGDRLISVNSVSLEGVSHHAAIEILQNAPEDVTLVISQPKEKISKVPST

T4: ARHGEF11, O15085
T4 sequence (O15085 42-136, limits assumed, looked up): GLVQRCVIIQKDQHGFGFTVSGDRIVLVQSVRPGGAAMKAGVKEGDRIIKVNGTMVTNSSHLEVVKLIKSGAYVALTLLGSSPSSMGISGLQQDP

T5: SHANK1, Q9Y566
T5 sequence (Q9Y566 658-767, limits assumed, looked up): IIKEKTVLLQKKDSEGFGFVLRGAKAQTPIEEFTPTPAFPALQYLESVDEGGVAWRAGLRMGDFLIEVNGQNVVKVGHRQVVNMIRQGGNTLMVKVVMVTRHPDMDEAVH

T6: SNTB1, Q13884
T6 sequence (Q13884 107-205, limits assumed, looked up): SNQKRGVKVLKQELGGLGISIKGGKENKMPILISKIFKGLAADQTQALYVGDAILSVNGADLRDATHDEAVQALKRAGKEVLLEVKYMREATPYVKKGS

T7: LNX2_3, Q8N448
T7 sequence (Q8N448 463-564, limits assumed, looked up): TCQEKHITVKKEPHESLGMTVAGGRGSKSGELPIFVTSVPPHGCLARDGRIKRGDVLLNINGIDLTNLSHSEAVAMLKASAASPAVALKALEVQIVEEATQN

T8: TX1BP3, O14907
T8 sequence (O14907 10-122, limits assumed, looked up): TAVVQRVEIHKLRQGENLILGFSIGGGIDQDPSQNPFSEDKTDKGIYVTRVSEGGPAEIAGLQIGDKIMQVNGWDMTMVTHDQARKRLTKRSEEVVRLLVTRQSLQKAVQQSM

T9: PDZRN3_1, Q9UPQ7
T9 sequence (Q9UPQ7 244-349, limits assumed, looked up): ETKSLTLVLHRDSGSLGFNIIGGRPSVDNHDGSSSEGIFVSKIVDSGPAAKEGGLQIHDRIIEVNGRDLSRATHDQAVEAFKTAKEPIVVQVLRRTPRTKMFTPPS

T10: GRIP1_2, Q9Y3R0
T10 sequence (Q9Y3R0 145-248, limits assumed, looked up): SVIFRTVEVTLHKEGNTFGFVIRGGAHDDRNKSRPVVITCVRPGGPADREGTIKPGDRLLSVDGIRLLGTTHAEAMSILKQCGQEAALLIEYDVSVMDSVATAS

T11: PDZD2_2, O15018
T11 sequence (O15018 329-429, limits assumed, looked up): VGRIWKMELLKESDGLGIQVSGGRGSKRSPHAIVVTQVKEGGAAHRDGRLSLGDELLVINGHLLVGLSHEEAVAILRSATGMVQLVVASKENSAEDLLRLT


Key:
Assay in all cases: holdup assay
Set-up in all cases: key: below the threshold = too weak to quantify, mostly under pKd 3.1 to 4
Settings in all cases: plain residues with an end cap or a label only (N-terminal biotin on a linker: ado-ado)
Inadl_8, Q8NI35 = biological target: Inadl_8, Q8NI35
Inadl_5, Q8NI35 = biological target: Inadl_5, Q8NI35
DFNB31_2, Q9P202 = biological target: T1, DFNB31_2, Q9P202
LIN7B, Q9HAP6 = biological target: T2, LIN7B, Q9HAP6
PTPN13_1, Q12923 = biological target: T3, PTPN13_1, Q12923
ARHGEF11, O15085 = biological target: T4, ARHGEF11, O15085
GRASP, Q7Z6J2 = biological target: GRASP, Q7Z6J2
PICK1, Q9NRD5 = biological target: PICK1, Q9NRD5
Inadl_10, Q8NI35 = biological target: Inadl_10, Q8NI35
SHANK1, Q9Y566 = biological target: T5, SHANK1, Q9Y566
LAP2, Q96RT1 = biological target: LAP2, Q96RT1
SCRIB_2, Q14160 = biological target: SCRIB_2, Q14160
SNTB1, Q13884 = biological target: T6, SNTB1, Q13884
LNX2_3, Q8N448 = biological target: T7, LNX2_3, Q8N448
TX1BP3, O14907 = biological target: T8, TX1BP3, O14907
Inadl_4, Q8NI35 = biological target: Inadl_4, Q8NI35
Inadl_3, Q8NI35 = biological target: Inadl_3, Q8NI35
MAGI3_2, Q5TCQ9 = biological target: MAGI3_2, Q5TCQ9
PARD3_3, Q8TEW0 = biological target: PARD3_3, Q8TEW0
GRIP2_3, Q9C0E4 = biological target: GRIP2_3, Q9C0E4
PDZRN3_1, Q9UPQ7 = biological target: T9, PDZRN3_1, Q9UPQ7
TJP2_1, Q9UDY2 = biological target: TJP2_1, Q9UDY2
GRIP1_2, Q9Y3R0 = biological target: T10, GRIP1_2, Q9Y3R0
AHNAK1, Q09666 = biological target: AHNAK1, Q09666
PDZD2_2, O15018 = biological target: T11, PDZD2_2, O15018
HTRA1, Q92743 = biological target: HTRA1, Q92743
Chain of HTRA1, Q92743 (Q92743 360-477): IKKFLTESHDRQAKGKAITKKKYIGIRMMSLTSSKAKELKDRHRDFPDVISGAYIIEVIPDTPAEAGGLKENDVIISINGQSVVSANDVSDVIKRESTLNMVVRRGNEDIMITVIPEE

Chain of Inadl_8, Q8NI35 (Q8NI35 1425-1530): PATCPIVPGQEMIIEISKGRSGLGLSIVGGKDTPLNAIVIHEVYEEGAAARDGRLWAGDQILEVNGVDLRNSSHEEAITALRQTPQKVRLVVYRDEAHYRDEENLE
Chain of LAP2, Q96RT1 (Q96RT1 other isoform, or with tags, fused parts or gaps): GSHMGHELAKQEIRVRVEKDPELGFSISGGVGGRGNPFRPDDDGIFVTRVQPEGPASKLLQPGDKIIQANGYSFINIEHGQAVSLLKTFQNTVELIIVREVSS
Chain of SCRIB_2, Q14160 (Q14160 857-960): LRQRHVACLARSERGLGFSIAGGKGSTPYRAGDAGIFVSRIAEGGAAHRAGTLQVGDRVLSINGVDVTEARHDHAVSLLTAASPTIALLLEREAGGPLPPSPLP
Chain of Inadl_4, Q8NI35 (Q8NI35 547-651): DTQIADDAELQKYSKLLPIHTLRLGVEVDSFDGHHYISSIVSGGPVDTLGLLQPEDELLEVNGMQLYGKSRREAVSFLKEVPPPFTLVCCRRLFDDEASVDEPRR
Chain of Inadl_5, Q8NI35 (Q8NI35 673-780): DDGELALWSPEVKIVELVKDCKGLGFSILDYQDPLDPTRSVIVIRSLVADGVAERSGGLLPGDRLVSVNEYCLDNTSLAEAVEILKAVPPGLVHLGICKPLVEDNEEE
Chain of Inadl_3, Q8NI35 (Q8NI35 359-469): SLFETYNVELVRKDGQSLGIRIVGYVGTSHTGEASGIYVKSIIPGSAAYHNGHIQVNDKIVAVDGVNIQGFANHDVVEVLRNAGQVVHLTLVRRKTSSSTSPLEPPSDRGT
Chain of GRIP2_3, Q9C0E4 (Q9C0E4 238-339): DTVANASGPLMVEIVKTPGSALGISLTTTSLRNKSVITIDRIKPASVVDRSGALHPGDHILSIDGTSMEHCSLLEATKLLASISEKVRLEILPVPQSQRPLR
Chain of PICK1, Q9NRD5 (Q9NRD5 17-115): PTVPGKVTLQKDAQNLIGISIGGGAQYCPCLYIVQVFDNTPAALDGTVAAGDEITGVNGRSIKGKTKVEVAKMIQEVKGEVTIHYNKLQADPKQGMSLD
Chain of GRASP, Q7Z6J2 (Q7Z6J2 96-193): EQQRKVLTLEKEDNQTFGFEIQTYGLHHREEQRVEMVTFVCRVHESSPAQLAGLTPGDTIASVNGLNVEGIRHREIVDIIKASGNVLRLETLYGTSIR
Chain of PARD3_3, Q8TEW0 (Q8TEW0 582-685): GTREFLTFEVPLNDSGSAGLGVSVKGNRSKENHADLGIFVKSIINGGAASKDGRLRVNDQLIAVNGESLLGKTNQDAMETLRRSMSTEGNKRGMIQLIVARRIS
Chain of MAGI3_2, Q5TCQ9 (Q5TCQ9 398-503): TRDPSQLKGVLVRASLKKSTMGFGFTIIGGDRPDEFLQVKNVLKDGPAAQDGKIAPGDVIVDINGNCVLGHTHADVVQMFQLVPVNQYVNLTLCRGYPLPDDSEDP
Chain of Inadl_10, Q8NI35 (Q8NI35 1673-1763): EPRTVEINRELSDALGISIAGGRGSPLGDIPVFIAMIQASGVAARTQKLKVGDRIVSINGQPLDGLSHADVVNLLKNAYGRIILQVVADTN
Chain of AHNAK1, Q09666 (Q09666 4-100): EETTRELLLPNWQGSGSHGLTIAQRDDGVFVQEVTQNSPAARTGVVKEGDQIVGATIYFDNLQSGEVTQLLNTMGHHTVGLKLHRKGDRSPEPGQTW
Chain of TJP2_1, Q9UDY2 (Q9UDY2 24-128): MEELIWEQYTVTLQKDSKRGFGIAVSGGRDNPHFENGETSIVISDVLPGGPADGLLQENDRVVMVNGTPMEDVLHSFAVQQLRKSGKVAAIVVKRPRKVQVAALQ

Binder | pKd (Inadl_8, Q8NI35) | pKd (Inadl_5, Q8NI35) | pKd (DFNB31_2, Q9P202) | pKd (LIN7B, Q9HAP6) | pKd (PTPN13_1, Q12923) | pKd (ARHGEF11, O15085) | pKd (GRASP, Q7Z6J2) | pKd (PICK1, Q9NRD5) | pKd (Inadl_10, Q8NI35) | pKd (SHANK1, Q9Y566) | pKd (LAP2, Q96RT1) | pKd (SCRIB_2, Q14160) | pKd (SNTB1, Q13884) | pKd (LNX2_3, Q8N448) | pKd (TX1BP3, O14907) | pKd (Inadl_4, Q8NI35) | pKd (Inadl_3, Q8NI35) | pKd (MAGI3_2, Q5TCQ9) | pKd (PARD3_3, Q8TEW0) | pKd (GRIP2_3, Q9C0E4) | further results
GIKKITSTAL [RPS6KA3, P51812] | 3.62 | 3.52 | below the threshold | below the threshold | below the threshold | 5.01 | 4.68 | below the threshold | 3.66 | 5.16 | below the threshold | 3.49 | 4.23 | 3.49 | 4.59 | below the threshold | below the threshold | 4.08 | 3.51 | 3.56 | pKd (PDZRN3_1, Q9UPQ7): 4.36; pKd (TJP2_1, Q9UDY2): 3.89; pKd (GRIP1_2, Q9Y3R0): 3.5; pKd (AHNAK1, Q09666): below the threshold; pKd (PDZD2_2, O15018): 3.57; pKd (HTRA1, Q92743): 3.58
PSHPRLQTHV [KIRREL2, Q6UWL6] | 3.61 | below the threshold | below the threshold | below the threshold | below the threshold | 4.06 | 4.18 | below the threshold | below the threshold | 3.84 | below the threshold | 3.76 | 3.48 | below the threshold | 4.64 | below the threshold | below the threshold | 5.1 | below the threshold | below the threshold | pKd (PDZRN3_1, Q9UPQ7): below the threshold; pKd (TJP2_1, Q9UDY2): 4.58; pKd (GRIP1_2, Q9Y3R0): below the threshold; pKd (AHNAK1, Q09666): below the threshold; pKd (PDZD2_2, O15018): 4.23; pKd (HTRA1, Q92743): below the threshold
DFLSTFHIRI [CIB2, O75838] | below the threshold | below the threshold | below the threshold | 3.67 | below the threshold | 3.64 | 3.47 | below the threshold | below the threshold | below the threshold | below the threshold | below the threshold | below the threshold | below the threshold | below the threshold | below the threshold | 4.49 | 4.3 | 4.28 | below the threshold | pKd (PDZRN3_1, Q9UPQ7): below the threshold; pKd (TJP2_1, Q9UDY2): below the threshold; pKd (GRIP1_2, Q9Y3R0): below the threshold; pKd (AHNAK1, Q09666): below the threshold; pKd (PDZD2_2, O15018): 3.71; pKd (HTRA1, Q92743): 4.15

The next lines start with results.

pKd (Inadl_8, Q8NI35) | pKd (Inadl_5, Q8NI35) | pKd (DFNB31_2, Q9P202) | pKd (LIN7B, Q9HAP6) | pKd (PTPN13_1, Q12923) | pKd (ARHGEF11, O15085) | pKd (GRASP, Q7Z6J2) | pKd (PICK1, Q9NRD5) | pKd (Inadl_10, Q8NI35) | pKd (SHANK1, Q9Y566) | pKd (LAP2, Q96RT1) | pKd (SCRIB_2, Q14160) | pKd (SNTB1, Q13884) | pKd (LNX2_3, Q8N448) | pKd (TX1BP3, O14907) | pKd (Inadl_4, Q8NI35) | pKd (Inadl_3, Q8NI35) | pKd (MAGI3_2, Q5TCQ9) | pKd (PARD3_3, Q8TEW0) | pKd (GRIP2_3, Q9C0E4) | Binder | further results
below the threshold | below the threshold | below the threshold | 3.74 | below the threshold | 3.58 | below the threshold | below the threshold | below the threshold | 3.9 | 3.56 | 3.49 | 3.51 | below the threshold | below the threshold | below the threshold | below the threshold | 3.62 | 3.78 | below the threshold | NVYGIESVKI [GRIA2, P42262] | pKd (PDZRN3_1, Q9UPQ7): below the threshold; pKd (TJP2_1, Q9UDY2): 3.56; pKd (GRIP1_2, Q9Y3R0): below the threshold; pKd (AHNAK1, Q09666): below the threshold; pKd (PDZD2_2, O15018): 3.63; pKd (HTRA1, Q92743): 4.25
below the threshold | below the threshold | below the threshold | below the threshold | below the threshold | 3.79 | 5.31 | below the threshold | below the threshold | 4.61 | below the threshold | below the threshold | below the threshold | below the threshold | below the threshold | below the threshold | below the threshold | below the threshold | below the threshold | below the threshold | TISFTQTSQF [SLC1A1, P43005] | pKd (PDZRN3_1, Q9UPQ7): below the threshold; pKd (TJP2_1, Q9UDY2): below the threshold; pKd (GRIP1_2, Q9Y3R0): below the threshold; pKd (AHNAK1, Q09666): below the threshold; pKd (PDZD2_2, O15018): below the threshold; pKd (HTRA1, Q92743): below the threshold
4.35 | below the threshold | below the threshold | below the threshold | 3.72 | 4.2 | 4.22 | 3.51 | 3.55 | 3.62 | 3.73 | below the threshold | 3.75 | 3.78 | below the threshold | 3.64 | 3.62 | 4.12 | 3.65 | 3.61 | EIPAQSPTCV [FZD10, Q9ULW2] | pKd (PDZRN3_1, Q9UPQ7): below the threshold; pKd (TJP2_1, Q9UDY2): 3.82; pKd (GRIP1_2, Q9Y3R0): 3.67; pKd (AHNAK1, Q09666): 3.57; pKd (PDZD2_2, O15018): 4.49; pKd (HTRA1, Q92743): 4.57
